The text below walks through data of PMC9633773, “Discovering cell-active BCL6 inhibitors: effectively combining biochemical HTS with multiple biophysical techniques, X-ray crystallography and cell-based assays” (Scientific Reports, 2022).

Details in all cases: both partners purified
In data set [1] the target is Trx-6His-HRV3C-BCL6 (Thioredoxin-6His-tagged BCL6 BTB, uncleaved) (human, UniProt P41182 5-129). Kind of data set: fluorescence polarisation; direct binding of the BCOR-AF633 probe to BCL6 BTB, FP KD (Figure S1A). On the technique in general: Fluorescence polarisation rises when a labelled molecule tumbles more slowly, as on binding a larger partner.
The target of data set [2] is T1, BCL6 BTB domain (BCL6 5-129, tag removed by HRV-3C protease) (human, UniProt P41182 5-129). The data set is described as above.
Data set [3] addresses T2, BCL6 BTB domain (BCL6 5-129, tag removed by HRV-3C protease) (human, UniProt P41182 5-129). Kind of data set: fluorescence polarisation; competition: 10 nM BCOR-AF633, 3 µM BCL6 BTB, unlabelled peptide varied; 20 mM Hepes/NaOH pH 8.0, 150 mM NaCl, 0.5 mM TCEP, 0.05% Tween 20, 1-2% DMSO; 2 h at room temperature.
Data set [4] concerns the target T2, BCL6 BTB domain (BCL6 5-129, tag …). Kind of data set: thermal shift assay; 10 µM BCL6 BTB, Sypro Orange, sodium acetate pH 6, 100 mM NaCl, 0.5 mM TCEP; 200 µM BCOR control peptide.
For data set [5], the target named is T1, BCL6 BTB domain (BCL6 5-129, tag …). In words: fluorescence polarisation; competition: 10 nM BCOR-AF633, 3 µM BCL6 BTB, unlabelled peptide varied; 20 mM Hepes/NaOH pH 8.0, 150 mM NaCl, 0.5 mM TCEP, 0.05% Tween 20, 1-2% DMSO; 2 h at room temperature. This is another data set of the same source.

Ends that are not written are not given here.

B1: Alexa Fluor 633-conjugated BCOR peptide (RSEIISTAPSSWVVPGP-Cys(AF633)-amide) (peptide)
peptide: RSEIISTAPSSWVVPGPC(Alexa Fluor 633 C5 maleimide)-NH2
notes: added C-terminal cysteine that carries the dye; also called BCOR-AF633; BCOR-A633; source: synthetic peptide, bought: Cambridge Research Biochemicals
What is called Kd is the free concentration of one partner at which half of the binding sites on the other are occupied at equilibrium, for simple one-to-one binding. On to B1, for which the Kd came out at 1.74 µM in data set [1] and 1.7 ± 0.3 µM in data set [2].

B2: unlabelled BCOR peptide (17 residue BCOR peptide) (peptide)
chain: RSEIISTAPSSWVVPGP
modifications: Terminal capping of the unlabelled peptide is not printed. Limits come from the UniProt BCL6-interaction region 498-514, which is 17 residues and matches the printed probe RSEIISTAPSSWVVPGP without …
Broadly, the IC50 is the concentration that inhibits the measured activity by half. A low value points to greater potency. B2: the IC50 in data set [3] was found to be 13 ± 1 µM. In data set [4], the “ΔTm with 200 µM peptide” value amounted to 6.5 °C.

B3: SMRT peptide (EGLVATVKEAGRSIHEIPR) (peptide)
peptide: EGLVATVKEAGRSIHEIPR
notes: also called SMRT control peptide; unlabelled SMRT peptide; source: synthetic peptide, bought: Pepceuticals Ltd
With B3, in data set [5], the IC50 was 16 ± 6 µM.
